Reference: EP2878677A1, “Activators of protein phosphatase 5” (Deutsches Zentrum für Neurodegenerative Erkrankungen e.V. …, priority 2013, dated 2015)

Target: YFP-Hsp90/DAF-21 (N-terminal YFP-tagged Hsp90) (C. elegans) (UniProt Q18688)
Assay: sedimentation velocity AUC with fluorescence detection; 300 nM YFP-Hsp90, 3 uM PPH-5; YFP-Hsp90 alone 6.8 S

Substance: PPH-5 (C. elegans protein phosphatase 5) (enzyme)
- sedimentation coefficient (s20,w) of YFP-Hsp90 in complex with PPH-5: 8.9 S
